What was measured:
[1] = biological target: F-actin (rabbit skeletal actin) (rabbit) (UniProt P68135)
[2] = biological target: T1, wildtype myosin regulatory light chain (WT-RLC), unlabeled recombinant (human, UniProt P10916 1-166); assay: other fluorescence titration
T1 sequence (looked up): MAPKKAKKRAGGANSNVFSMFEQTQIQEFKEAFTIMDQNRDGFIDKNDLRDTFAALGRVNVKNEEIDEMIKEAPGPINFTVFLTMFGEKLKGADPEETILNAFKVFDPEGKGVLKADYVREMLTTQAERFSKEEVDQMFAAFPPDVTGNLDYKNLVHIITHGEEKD

[3] = biological target: RLC-depleted isolated porcine β-cardiac myosin (porcine) (UniProt P79293); assay: reconstitution of RLC-depleted myosin, SDS-PAGE densitometry
[4] = biological target: cardiac myosin binding protein-C fragment spanning domains C0 to C2 (C0C2) (UniProt Q14896 1-452); assay: MST
Chain of cardiac myosin binding protein-C fragment spanning domains C0 to C2 (C0C2) (Q14896 1-452): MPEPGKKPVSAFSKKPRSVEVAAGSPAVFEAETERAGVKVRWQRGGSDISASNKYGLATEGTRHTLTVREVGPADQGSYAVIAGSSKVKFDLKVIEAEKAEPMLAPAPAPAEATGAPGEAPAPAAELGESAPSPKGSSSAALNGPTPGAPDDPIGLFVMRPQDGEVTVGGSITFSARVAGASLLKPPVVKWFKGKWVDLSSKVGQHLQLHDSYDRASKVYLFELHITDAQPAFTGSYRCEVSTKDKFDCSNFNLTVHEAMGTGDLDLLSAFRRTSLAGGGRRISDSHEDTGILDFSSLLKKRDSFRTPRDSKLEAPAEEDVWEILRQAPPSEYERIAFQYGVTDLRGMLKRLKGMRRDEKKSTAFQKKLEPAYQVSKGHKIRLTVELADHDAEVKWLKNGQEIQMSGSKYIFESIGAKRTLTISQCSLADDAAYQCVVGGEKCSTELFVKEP

“porcine β-cardiac myosin fully reconstituted with R58Q-RLC (from UniProt P79293 1-1935; P10916 1-166) (complex)” gave a KM for F-actin of the F-actin activated myosin ATPase (Michaelis-Menten fit) [1] of 2.91 µM.

With “porcine β-cardiac myosin fully reconstituted with WT-RLC (from UniProt P79293 1-1935; P10916 1-166) (complex)” the KM for F-actin of the F-actin activated myosin ATPase (Michaelis-Menten fit) [1] was 1.5 µM.

ERRDSLLVIQWNIRAFMGVKNWPWMKLYFKIK [RLC binding site peptide of the human β-cardiac myosin heavy chain (amino acids 805–837)] was tested, and the Kd [2] was < 0.5 µM.

B1: wildtype myosin regulatory light chain (WT-RLC), unlabeled recombinant (natural protein)
chain: MAPKKAKKRAGGANSNVFSMFEQTQIQEFKEAFTIMDQNRDGFIDKNDLRDTFAALGRVNVKNEEIDEMIKEAPGPINFTVFLTMFGEKLKGADPEETILNAFKVFDPEGKGVLKADYVREMLTTQAERFSKEEVDQMFAAFPPDVTGNLDYKNLVHIITHGEEKD
B1 gave a Kd [3] of 4 µM.

B2: Alexa 647 labelled WT-RLC (natural protein, human, UniProt P10916 1-166, looked up)
chain: MAPKKAKKRAGGANSNVFSMFEQTQIQEFKEAFTIMDQNRDGFIDKNDLRDTFAALGRVNVKNEEIDEMIKEAPGPINFTVFLTMFGEKLKGADPEETILNAFKVFDPEGKGVLKADYVREMLTTQAERFSKEEVDQMFAAFPPDVTGNLDYKNLVHIITHGEEKD
modifications: Alexa 647 (labelled with Alexa 647-NHS; site not stated)
Molecule B2 has a Kd [4] of 8.6 µM.

B3: Alexa 647 labelled R58Q-RLC (natural protein, human, UniProt P10916 1-166, looked up)
chain: MAPKKAKKRAGGANSNVFSMFEQTQIQEFKEAFTIMDQNRDGFIDKNDLRDTFAALGQVNVKNEEIDEMIKEAPGPINFTVFLTMFGEKLKGADPEETILNAFKVFDPEGKGVLKADYVREMLTTQAERFSKEEVDQMFAAFPPDVTGNLDYKNLVHIITHGEEKD
modifications: Alexa 647 (labelled with Alexa 647-NHS; site not stated)
B3 gave a Kd [4] of 9.7 µM.

B4: myosin regulatory light chain with the hypertrophic cardiomyopathy mutation R58Q (R58Q-RLC), unlabeled recombinant (natural protein)
chain: MAPKKAKKRAGGANSNVFSMFEQTQIQEFKEAFTIMDQNRDGFIDKNDLRDTFAALGQVNVKNEEIDEMIKEAPGPINFTVFLTMFGEKLKGADPEETILNAFKVFDPEGKGVLKADYVREMLTTQAERFSKEEVDQMFAAFPPDVTGNLDYKNLVHIITHGEEKD
B4 showed a Kd [3] of 4 µM.
